Laboratory results as given in article PMC4414246.

How the values were obtained:
Assay in all cases: fluorescence polarization
dK50dM51 E19S = dK50dM51 E19S (UniProt P09012 10-89, E19S;del50-51)
dK50dM51 N15A = dK50dM51 N15A (UniProt P09012 10-89, N15A;del50-51)
U1A S46A = U1A S46A (UniProt P09012 10-89, S46A)
U1A E19A:F56A = U1A E19A:F56A (UniProt P09012 10-89, E19A;F56A)
dK50dM51 S46A = dK50dM51 S46A (UniProt P09012 10-89, S46A;del50-51)
U1A E19S:Y13Q = U1A E19S:Y13Q (UniProt P09012 10-89, Y13Q;E19S)
U1A N15A = U1A N15A (UniProt P09012 10-89, N15A)
U1A E19F:F56A = U1A E19F:F56A (UniProt P09012 10-89, E19F;F56A)
U1A L49A = U1A L49A (UniProt P09012 10-89, L49A)
U1A M51F = U1A M51F (UniProt P09012 10-89, M51F)
U1A E19N = U1A E19N (UniProt P09012 10-89, E19N)
U1A E19A = U1A E19A (UniProt P09012 10-89, E19A)
U1A L49A:N15V = U1A L49A:N15V (UniProt P09012 10-89, N15V;L49A)
U1A N16A = U1A N16A (UniProt P09012 10-89, N16A)
U1A E19A:N15V = U1A E19A:N15V (UniProt P09012 10-89, N15V;E19A)
U1A L49K = U1A L49K (UniProt P09012 10-89, L49K)
U1A M51A:N15V = U1A M51A:N15V (UniProt P09012 10-89, N15V;M51A)
dK50dM51 E19K = dK50dM51 E19K (UniProt P09012 10-89, E19K;del50-51)
dK50dM51 L49A = dK50dM51 L49A (UniProt P09012 10-89, L49A;del50-51)
U1A K50A = U1A K50A (UniProt P09012 10-89, K50A)
U1A L49A:F56A = U1A L49A:F56A (UniProt P09012 10-89, L49A;F56A)
U1A E19F = U1A E19F (UniProt P09012 10-89, E19F)
U1A M51S = U1A M51S (UniProt P09012 10-89, M51S)
U1A M51A:E19A = U1A M51A:E19A (UniProt P09012 10-89, E19A;M51A)

B1: TAR RNA (structured_RNA)
RNA: GGCAGAUCUGAGCCUGGGAGCUCUCUGCC
In the case of B1, the Kd (dK50dM51 E19S) is reported as 7 ± 1.9 µM, the Kd (dK50dM51 N15A) is reported as 91.1 ± 8.8 µM and the Kd (U1A S46A) is reported as 15.1 ± 2.6 µM. It also gave a Kd (U1A E19A:F56A) of 29.2 ± 6.3 µM, a Kd (dK50dM51 S46A) of 24.5 ± 6 µM and a Kd (U1A E19S:Y13Q) of 10.3 ± 2.8 µM. For the same binder, the Kd (U1A N15A) was 11.7 ± 0.9 µM, the Kd (U1A E19F:F56A) was 20.9 ± 3.3 µM and the Kd (U1A L49A) was 5.2 ± 0.5 µM. It also gave a Kd (U1A M51F) of 16.4 ± 2.3 µM, a Kd (U1A E19N) of 12 ± 0.9 µM and a Kd (U1A E19A) of 5.9 ± 0.8 µM. For the same binder, the Kd (U1A L49A:N15V) was 39.2 ± 9.6 µM, the Kd (U1A N16A) was 8.8 ± 1.4 µM and the Kd (U1A E19A:N15V) was 14.2 ± 1.4 µM. For the same binder, the Kd (U1A L49K) was 3.9 ± 0.4 µM, the Kd (U1A M51A:N15V) was 46 ± 13.4 µM and the Kd (dK50dM51 E19K) was 6.3 ± 1 µM. It also gave a Kd (dK50dM51 L49A) of 91.6 ± 39.7 µM, a Kd (U1A K50A) of 39.6 ± 12.2 µM and a Kd (U1A L49A:F56A) of 123 ± 38.7 µM. It also gave a Kd (U1A E19F) of 6.2 ± 0.8 µM, a Kd (U1A M51S) of 29.9 ± 5.7 µM and a Kd (U1A M51A:E19A) of 14.9 ± 2.5 µM.
